According to the supplement of paper PMC9170038:

What was measured:
MS2 coat protein [1] = assay: apparent KD of MS2 coat protein, switch ON state; designed switch direction (-1 OFF switch, 1 ON switch): -1; higher = weaker reporter binding; conditions: FMN input: 0 or 200 uM; Eterna round: R93 (includes R88 designs)
Method in brief: (§1)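 Apparent KD is reported per design as the median of normalised binding-curve fits across its clusters. The RNA switches were made by on-chip transcription from Illumina sequencing clusters. SNAP-549-labelled MS2 coat protein was then added in twofold steps (0.7 or 1.5 nM to 3 µM; 0.8–1.5 h to 10–20 min per step) in 100 mM Tris-HCl pH 7.5, 80 mM KCl, 4 mM MgCl2, without or with constant ligand.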

MS2 coat protein [2] = assay: apparent KD of MS2 coat protein, switch OFF state (with FMN for OFF switches, without FMN for ON switches); designed switch direction (-1 OFF switch, 1 ON switch): -1; higher = weaker reporter binding; conditions: FMN input: 0 or 200 uM; Eterna round: R93 (includes R88 designs)
Method in brief: as §1

Sequence | apparent KD of MS2 coat protein (MS2 coat protein [1]) [nM] | apparent KD of MS2 coat protein (MS2 coat protein [2]) [nM]
AAAAAUGGAGGAUAUACAUGAGGAUCACCCAUGUGUGGGCAUACUGUGUCGGCGUCAGGUAGAAGGCCAAAAAA [Gilly Gone Silly 27 - Jieux - Exclusion 3] | 36.5 | 47.8
AAAAAGUCAGGAUAUGCGAAGGCGUCUGAUAGACGAGGCUAGCAGAAGGGACAUGAGGAUCACCCAUGUGAAAA [Mat - Mod of Nando 64% 1] | 57.9 | 143
AAGAUCAGAGGAUAUACAUAAGGUGAUGGAGACAUCGCCAAACAUGAGGAUCACCCAUGUAGAAGGCUGAUCAA [Mat - Exclusion 2 - JL mod - D62] | 36.8 | 49.7
AAAAAGUUAGGAUAUACAUGAGGAUCACCCAUGUGCACAUAUGGAGAAUAUGGUAGUAGUAGAAGGGACAAAAA [EX2 Malc#16] | 30.3 | 33.3
AAGCUGGUAGGAUAUACUAGGGCAACUAAUGCACCGAUAGGACAUGAGGAUCACCCAUGUAGAAGGGCCAGAAA [JR_Exc002_Sub404] | 65.5 | 137
AUAGUACAUGAGGAUCACCCAUGUCAGGAUAUUGGAUAUGACAUGAAAAAAAUGUUAACGAGAAGGGACUAUAA [EX1 Malc#17] | 58.6 | 80.7
CUCAAGUAAGGAUAUGGAAGAAAAGAAGAGAAAGAAAAGAACCAGAAGGUACAUGAGGAUCACCCAUGUAAGAA [EteRNA is fun!] | 37.2 | 24.6
AUAGGUCAAGGAUAUACAUGAGGAUCACCCAUGUAAAUAACUCCAUAAAACUCCACAAGUAGAAGGUGAAAUAA [JR_Exc003_Sub202] | 17.9 | 15.8
AAAAAACAUGAGGAUCACCCAUGUCAGGAUAUCUGUAUUCAAUCCUCGGAUUGAAUACAGAGAAGGGACAUGGG [Ex1: 601] | 22.6 | 18
AGGGAACAUGAGGAUCACCCAUGUGAGGAUAUUCAAAAGAAAAGAAAAGAAAGAAGAAGAAGAAGGUACAAGAA [Neferkare Pepi II] | 42.9 | 36.9
CUCAAGUGAGGAUAUCAGUAGUAAAAAAAUAAAAUUACUACUGAGAAGGCACAUGAGGAUCACCCAUGUGCAAA [EX4 336: Super Stable 36] | 19.6 | 17
AAAAAGUGAGGAUAUUCGGAAGGGAAAGCGCAAACCCAACCGAAGAAGGCACAUGAGGAUCACCCAUGUGGAAG [Mat - Exaclusion 4 - Eli mod - D57] | 29.5 | 30.2
GGAAAACAUGAGGAUCACCCAUGUAAGGAUAUGCUAGGGAGGGAAAAAAUUUCGCCAGGCAGAAGGUACUAAAG [Janelle Amethyst 18 Mod 6 - Jieux - Exclusion 1] | 23.5 | 44.7
UAAAAACAUGAGGAUCACCCAUGUCAGGAUAUGUGCUUAAUAAAAAAAUAAAUAACAAGCAGAAGGGACAAUAA [JR_Exc001_Sub201] | 35 | 34.4
CGCUAGUCAGGAUAUACGAACAUGUCAAAAGACGUGAAAAAACAUGAGGAUCACCCAUGUAGAAGGGACUAGCG [Mat - Exclusion 2 - JL mod - D17] | 16.2 | 14.9
AAAAAGUCAGGAUAUGUCAAAAGUCACAAAAGUGACAAAAGACAGAAGGGACAUGAGGAUCACCCAUGUGGAAA [Mod of Eli - Late G segment 1] | 89.3 | 134
AACAGUACAGGAUAUACAUGAGGAUCACCCAUGUGAAGAUUAAGUGGAGUACCACAAAGUAGAAGGGUACUGGA [Ruby 89] | 28.1 | 101
AAAGGACAAGGAUAUACAUGAGGAUCACCCAUGUAAAAAACAUAAUAAAAGAACUUAUGUAGAAGGUGUCCAAA [69%, Moding Meechl, 8] | 38.3 | 177
AAAACGUGAGGAUAUGCACCAAAAAAGAAAAAACGGGUACGACAUGAGGAUCACCCAUGUAGAAGGCACGAAAA [Frodo Flailing 8 - Jieux - Exclusion 2] | 35.3 | 37.2
AGUCAGAGAGGAUAUACAUGGGAAAAAAAAGUAAGAUCCCUACAUGAGGAUCACCCAUGUAGAAGGCUCUGACA [Ex2 Design 139: Sub-opt 3] | 22.6 | 20.2
AAAAAACAUGAGGAUCACCCAUGUCAGGAUAUGCUCAGCAAUAUUCCAAUAAAGAACGGUAGAAGGGACAGGAA [Bilbo Confounded 24 - Jieux - Exclusion 1] | 24.9 | 26.6
